In the experiment the target is SARS-CoV-2 S2 fragment (fusion fragment; postfusion S2 trimer, peak 2) (SARS-CoV-2). As to the kind of experiment: cryo-EM structure.

With “SARS-CoV-2 S2 fragment (fusion fragment; postfusion S2 trimer, peak 2) (domain or fragment)”, the stoichiometry N worked out at 3.

As a reminder, the stoichiometry N is the number of molecules, sites or subunits per partner or assembly.
